Experimental data: patent publication US20240343835A1, “COVALENT HETEROBIVALENT ANTIBODY INHIBITORS AND LIGANDS” (UNIVERSITY OF NOTRE DAME DU LAC, priority 2015, published 2024)
Blank lines part the entries; values can stand above or below the binder they belong to. Ends that are not written are not given here.

Legend:
[1] = biological target: Trastuzumab (anti-HER2/neu IgG); assay: fluorescence quenching
[2] = biological target: Trastuzumab (anti-HER2/neu IgG); assay: fluorescence quenching, ligand titrated into 30 nM trastuzumab; apparent Kd
[3] = biological target: Trastuzumab (anti-HER2/neu IgG); assay: fluorescence quenching: ligand titrated into trastuzumab, F/F0 against Ligand (nM)
[4] = biological target: Trastuzumab (anti-HER2/neu IgG); assay: method not stated in the legend
[5] = biological target: Trastuzumab (anti-HER2/neu IgG); assay: flow cytometry on HER2-expressing cells, FITC signal of cHBL-tagged trastuzumab
[6] = biological target: Trastuzumab (anti-HER2/neu IgG); assay: fluorescence quenching, ligand titrated into 30 nM trastuzumab

B1: Trast-Napht-DNP (peptide)
peptide: LLGPYELWELSH
modifications: also: DNP attached via EG2 spacer, 2-naphthaleneacetic acid attached via ethylene glycol spacer, attachment sites not given here
- fold increase in observed affinity against the peptide without napht [1]: > 4 fold
- Kd [2]: 46.6 nM
- EC50 (read off the curve) [3]: 50 nM

B4: Trast-DNP (Trastuzumab binding peptide tagged with DNP) (peptide)
peptide: LLGPYELWELSH
modifications: not fully specified (C-terminus); also: DNP attached via EG2 spacer, attachment site not given here
- Kd [6]: 200 nM
- EC50 (read off the curve) [3]: 200 nM

Second part, the binder after the results:

- Kd [4]: 1200 nM
B2: Trastuzumab binding peptide … (peptide)
peptide: LLGPYELWELSH

- percent of maximum FITC signal at 1 µM cHBL [5]: 50%
B3: Trast-cHBL (Peptide-…) (peptide)
peptide: LLGPYELWELSH
modifications: also: 5(6)-carboxyfluorescein via EG2 spacer, EG6x2 spacer on peptide, branching Lys with 2-naphthaleneacetic acid on alpha-amine and EG4-isothiocyanate on epsilon-amine, attachment sites not given here
